{"source": "paper doi:10.1101/2022.10.14.512271", "binders": {"B1": {"name": "FI-Oid (18-mer operator) (dsDNA)", "DNA 1": "ATTGTGAGCGCTCACAAT", "DNA 2": "ATTGTGAGCGCTCACAAT"}}, "key": {"[1]": {"biological_target": "lac repressor M42I/K84L (IhL) (UniProt P03023 1-360, M42I;K84L)", "sequence (P03023 whole entry M42I/K84L)": "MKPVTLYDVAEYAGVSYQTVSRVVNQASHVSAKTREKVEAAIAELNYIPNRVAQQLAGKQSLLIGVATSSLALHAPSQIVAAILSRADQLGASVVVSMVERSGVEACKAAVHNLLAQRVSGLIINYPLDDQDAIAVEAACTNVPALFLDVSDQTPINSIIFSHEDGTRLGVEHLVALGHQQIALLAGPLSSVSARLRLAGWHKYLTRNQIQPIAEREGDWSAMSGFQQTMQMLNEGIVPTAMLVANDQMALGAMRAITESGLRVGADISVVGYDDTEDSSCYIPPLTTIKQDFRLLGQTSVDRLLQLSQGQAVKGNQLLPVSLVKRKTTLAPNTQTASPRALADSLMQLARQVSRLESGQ", "assay": "fluorescence anisotropy"}, "[2]": {"biological_target": "lac repressor M42I (Ihk) (UniProt P03023 1-360, M42I)", "sequence (P03023 whole entry M42I)": "as the sequence (P03023 whole entry M42I/K84L) above, with L84K counted along it", "assay": "fluorescence anisotropy"}}, "data": [{"binder": "B1", "values": [{"measurement": "binding result", "setting": "[1]", "result": "binds"}, {"measurement": "binding result", "setting": "[2]", "result": "binds"}]}]}
